Source: the MegaScale stability set (Tsuboyama et al. 2023)

B1: 1ZHC (parent)
chain: HEFRDEISVLKANNPHFDKIFEKHNQLDDDIKTAEQQNASDAEVSHMKKQKLKLKDEIHSMIIEYREK

Variants of: B1
Experiment: folding stability dG (cDNA display proteolysis); higher = more stable
Settings: PBS, room temperature

| Variant | folding stability dG [kcal/mol] |
| --- | --- |
| HRFRDEISVLKANNPHFDKIFEKHNQLDDDIKTAEQQNASDAEVSHMKKQKLKLKDEIHSMIIEYREK [E2R] | 1.19 |
| HWFRDEISVLKANNPHFDKIFEKHNQLDDDIKTAEQQNASDAEVSHMKKQKLKLKDEIHSMIIEYREK [E2W] | 1.66 |
| HTFRDEISVLKANNPHFDKIFEKHNQLDDDIKTAEQQNASDAEVSHMKKQKLKLKDEIHSMIIEYREK [E2T] | 0.802 |
| HYFRDEISVLKANNPHFDKIFEKHNQLDDDIKTAEQQNASDAEVSHMKKQKLKLKDEIHSMIIEYREK [E2Y] | 1 |
| HSFRDEISVLKANNPHFDKIFEKHNQLDDDIKTAEQQNASDAEVSHMKKQKLKLKDEIHSMIIEYREK [E2S] | 0.328 |
| HVFRDEISVLKANNPHFDKIFEKHNQLDDDIKTAEQQNASDAEVSHMKKQKLKLKDEIHSMIIEYREK [E2V] | 1.2 |
| HEFHDEISVLKANNPHFDKIFEKHNQLDDDIKTAEQQNASDAEVSHMKKQKLKLKDEIHSMIIEYREK [R4H] | 0.919 |
| HEFSDEISVLKANNPHFDKIFEKHNQLDDDIKTAEQQNASDAEVSHMKKQKLKLKDEIHSMIIEYREK [R4S] | 1.05 |
| HEFDDEISVLKANNPHFDKIFEKHNQLDDDIKTAEQQNASDAEVSHMKKQKLKLKDEIHSMIIEYREK [R4D] | 1.04 |
| HEFTDEISVLKANNPHFDKIFEKHNQLDDDIKTAEQQNASDAEVSHMKKQKLKLKDEIHSMIIEYREK [R4T] | 0.952 |
| HEFQDEISVLKANNPHFDKIFEKHNQLDDDIKTAEQQNASDAEVSHMKKQKLKLKDEIHSMIIEYREK [R4Q] | 1.08 |
| HEFFDEISVLKANNPHFDKIFEKHNQLDDDIKTAEQQNASDAEVSHMKKQKLKLKDEIHSMIIEYREK [R4F] | 1.5 |
| HEFVDEISVLKANNPHFDKIFEKHNQLDDDIKTAEQQNASDAEVSHMKKQKLKLKDEIHSMIIEYREK [R4V] | 0.547 |
| HEFLDEISVLKANNPHFDKIFEKHNQLDDDIKTAEQQNASDAEVSHMKKQKLKLKDEIHSMIIEYREK [R4L] | 1.17 |
| HEFMDEISVLKANNPHFDKIFEKHNQLDDDIKTAEQQNASDAEVSHMKKQKLKLKDEIHSMIIEYREK [R4M] | 1.13 |
| HEFGDEISVLKANNPHFDKIFEKHNQLDDDIKTAEQQNASDAEVSHMKKQKLKLKDEIHSMIIEYREK [R4G] | 0.834 |
| HEFPDEISVLKANNPHFDKIFEKHNQLDDDIKTAEQQNASDAEVSHMKKQKLKLKDEIHSMIIEYREK [R4P] | 0.834 |
| HEFIDEISVLKANNPHFDKIFEKHNQLDDDIKTAEQQNASDAEVSHMKKQKLKLKDEIHSMIIEYREK [R4I] | 1.02 |
| HEFKDEISVLKANNPHFDKIFEKHNQLDDDIKTAEQQNASDAEVSHMKKQKLKLKDEIHSMIIEYREK [R4K] | 0.923 |
| HEFADEISVLKANNPHFDKIFEKHNQLDDDIKTAEQQNASDAEVSHMKKQKLKLKDEIHSMIIEYREK [R4A] | 1.26 |

| Variant | folding stability dG [kcal/mol] |
| --- | --- |
| HEFEDEISVLKANNPHFDKIFEKHNQLDDDIKTAEQQNASDAEVSHMKKQKLKLKDEIHSMIIEYREK [R4E] | 1.08 |
| HEFNDEISVLKANNPHFDKIFEKHNQLDDDIKTAEQQNASDAEVSHMKKQKLKLKDEIHSMIIEYREK [R4N] | 0.384 |
| HERRDEISVLKANNPHFDKIFEKHNQLDDDIKTAEQQNASDAEVSHMKKQKLKLKDEIHSMIIEYREK [F3R] | -0.674 |
| HEARDEISVLKANNPHFDKIFEKHNQLDDDIKTAEQQNASDAEVSHMKKQKLKLKDEIHSMIIEYREK [F3A] | 0.526 |
| HEPRDEISVLKANNPHFDKIFEKHNQLDDDIKTAEQQNASDAEVSHMKKQKLKLKDEIHSMIIEYREK [F3P] | 0.015 |
| HEHRDEISVLKANNPHFDKIFEKHNQLDDDIKTAEQQNASDAEVSHMKKQKLKLKDEIHSMIIEYREK [F3H] | 0.635 |
| HEERDEISVLKANNPHFDKIFEKHNQLDDDIKTAEQQNASDAEVSHMKKQKLKLKDEIHSMIIEYREK [F3E] | 0.242 |
| HENRDEISVLKANNPHFDKIFEKHNQLDDDIKTAEQQNASDAEVSHMKKQKLKLKDEIHSMIIEYREK [F3N] | 0.409 |
| HETRDEISVLKANNPHFDKIFEKHNQLDDDIKTAEQQNASDAEVSHMKKQKLKLKDEIHSMIIEYREK [F3T] | 0.328 |
| HESRDEISVLKANNPHFDKIFEKHNQLDDDIKTAEQQNASDAEVSHMKKQKLKLKDEIHSMIIEYREK [F3S] | 0.019 |
| HEMRDEISVLKANNPHFDKIFEKHNQLDDDIKTAEQQNASDAEVSHMKKQKLKLKDEIHSMIIEYREK [F3M] | 0.267 |
| HEIRDEISVLKANNPHFDKIFEKHNQLDDDIKTAEQQNASDAEVSHMKKQKLKLKDEIHSMIIEYREK [F3I] | 0.418 |
| HEDRDEISVLKANNPHFDKIFEKHNQLDDDIKTAEQQNASDAEVSHMKKQKLKLKDEIHSMIIEYREK [F3D] | 0.364 |
| HEGRDEISVLKANNPHFDKIFEKHNQLDDDIKTAEQQNASDAEVSHMKKQKLKLKDEIHSMIIEYREK [F3G] | 0.249 |
| HEQRDEISVLKANNPHFDKIFEKHNQLDDDIKTAEQQNASDAEVSHMKKQKLKLKDEIHSMIIEYREK [F3Q] | 0.544 |
| HEWRDEISVLKANNPHFDKIFEKHNQLDDDIKTAEQQNASDAEVSHMKKQKLKLKDEIHSMIIEYREK [F3W] | 1.15 |
| HEYRDEISVLKANNPHFDKIFEKHNQLDDDIKTAEQQNASDAEVSHMKKQKLKLKDEIHSMIIEYREK [F3Y] | 1.05 |
| HELRDEISVLKANNPHFDKIFEKHNQLDDDIKTAEQQNASDAEVSHMKKQKLKLKDEIHSMIIEYREK [F3L] | 1.04 |
| HEKRDEISVLKANNPHFDKIFEKHNQLDDDIKTAEQQNASDAEVSHMKKQKLKLKDEIHSMIIEYREK [F3K] | 0.26 |
| HEVRDEISVLKANNPHFDKIFEKHNQLDDDIKTAEQQNASDAEVSHMKKQKLKLKDEIHSMIIEYREK [F3V] | 0.222 |
